Results as given in the supplement of paper PMC10567573.

B1: CIB1 (parent)
chain: DLSRLVNCLTGEGEDTRLSASEMK

Variants of: B1
Assay: protein stability index of a GFP-peptide fusion (GPS, HEK-293T) (PSI 1-6); higher = more stable
Settings: c terminus: a fixed tail appended
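Further: lentivirally expressed fusions sorted by FACS into six bins by GFP to DsRed ratio, PSI derived from sequencing read proportions per bin multiplied by bin number.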

Protein stability index: each site, then its substitutions
L9: E 3.09; A 1.75; F 3.35; N 4.24; Q 3.25; D 3.23; M 4.05; H 3.78; R 2.54; Y 3.32; S 2.62; P 2.87; I 3.04; T 3.02; V 4.17
R17: N 2.76; A 3.68; Q 3.1; V 2.65; S 2.84; K 2.82; E 4.53; Y 2.81; W 2.33; F 2.99; M 3.08; P 3.35; L 2.59; D 4.12; I 2.97
L18: F 1.85; H 4.09; A 3.34; E 2.48; D 4.07; K 3.36; G 1.4; M 2.49
G13: K 3.45; W 2.4; S 3.97; P 3.03; C 2.94; R 2.89; Q 2.54; H 3.31; N 2.71; L 2.53; I 3.55; V 2.65; T 3.16; Y 3.02; A 3.62; E 3.07; M 2.76
D15: T 2.12; R 2.67; V 1.54; A 3.61; P 2.62; H 3.49; N 1.77; F 2.32; C 2.19; M 1.61; E 3.52; G 3.83; Y 2.06; K 3.1
N7: W 2.2
T16: F 2.07; S 2.48; D 3.58; L 3.71; A 2.46; N 3.22; H 3.5; P 4.07; Q 2.9; M 2.62; Y 2.49; E 3.18; V 2.8; G 3.35; K 3.87
T10: Y 1.99; Q 3.61; W 2.48; F 2.77; I 2.68; G 2.92; S 3.17; L 2.44; C 4.11; M 2.11; V 3.38; K 2.9; A 3.49; D 3.27; H 3.94; E 3.39; R 2.15; P 2.44
E12: L 1.88; C 3.46; P 3.04; V 3.34; W 2.05; A 2.15; H 2.92; M 3.22; F 1.63; G 1.18; S 2.44; Q 2.43; T 1.85; R 2.4; Y 2.17; I 2.38; D 1.73; K 3.29
G11: K 3.49; N 3.7; Y 2.67; I 3; R 2.9; C 3.16; L 2.88; F 3.35; Q 3.03; T 2.6; S 3.55; W 2.34; M 2.84; E 3.98; H 3.81
C8: E 3.42; P 4.28; A 3.09; M 3.52; V 3.27; K 1.43; S 3.63; Y 2.34; Q 3.95; H 2.81; N 3.02; L 2.21; F 2.46; D 4.3; I 2.4; G 3.77
E14: H 3.05; Q 3.53; L 2.27; M 2.06; F 2.2; R 2.34; D 1.66; N 3.06; P 2.17; K 2.94; T 3.41; C 3.36; A 2.37; I 2.6; Y 2.83
